Reference: US20210072252A1

Target: synthetic peptide with N-terminal methionine (Example 1, on nanogel surface)
Assay: single-molecule detection, TIRF microscopy; labeled NAAB on peptide immobilized on nanogel; counts per field of view

Substance: wild-type E. coli methionine aminopeptidase (eMAP) (from UniProt P0AE18 1-264) (enzyme)
- ratio of specific to non-specific binding: 2 to 1
